Data as given in patent US20230331852A1 (OSE IMMUNOTHERAPEUTICS, published 2023).

Columns and labels:
[1] = biological target: T1, human CLEC-1A expressed on the cell membrane (human, UniProt Q8NC01 1-280); assay: flow cytometry on U266 cells
T1 construct: Endogenous on human U266 myeloma cells, on monocyte-derived TGFb-DC and macrophages; on CHO cells after transduction with a Clec-1 expressing lentivirus; also called U266 CLEC1; CLEC-1A on U266 cells
T1 sequence: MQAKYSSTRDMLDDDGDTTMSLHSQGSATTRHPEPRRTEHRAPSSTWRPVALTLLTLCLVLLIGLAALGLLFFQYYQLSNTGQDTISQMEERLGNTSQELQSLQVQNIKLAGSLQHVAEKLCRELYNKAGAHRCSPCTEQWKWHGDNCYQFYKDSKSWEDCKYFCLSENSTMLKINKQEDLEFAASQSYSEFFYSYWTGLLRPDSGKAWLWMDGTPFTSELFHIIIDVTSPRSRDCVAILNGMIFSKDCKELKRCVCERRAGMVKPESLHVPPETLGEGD
Procedure: (§1) Method: To measure binding of anti-CLEC1 on human U266 cell lines (pre-blocked with Fcblock to blocking FcR), antibodies at different concentrations were incubated for 30 min at 4° C., and washed before stained 30 min at 4° C. with PE-labelled anti-human IgG (Biolegend; reference 409304). Samples were analyzed on Cytoflex cytofluorometer (Beckman Coulter). The MFI of anti-CLEC1 was compared between all anti-CLEC1 antibodies and percentage of stained cells was analysed in all conditions.

[2] = biological target: T1, human CLEC-1A expressed on the cell …; assay: flow cytometry on U266 cells, PE anti-human IgG; % positive cells
Procedure: as §1

[3] = biological target: T2, recombinant human CLEC-1 protein with His Tag (#1704-CL R&D Systems) (human, UniProt Q8NC01 74-280); assay: BLI (Blitz), CLEC1-His on Ni-NTA biosensor, antibody at 20 ug/mL; chimeric antibody, FIG. 17
T2 construct: Bought protein; also called His-CLEC1; His Clec-1; not shown: His tag
T2 sequence: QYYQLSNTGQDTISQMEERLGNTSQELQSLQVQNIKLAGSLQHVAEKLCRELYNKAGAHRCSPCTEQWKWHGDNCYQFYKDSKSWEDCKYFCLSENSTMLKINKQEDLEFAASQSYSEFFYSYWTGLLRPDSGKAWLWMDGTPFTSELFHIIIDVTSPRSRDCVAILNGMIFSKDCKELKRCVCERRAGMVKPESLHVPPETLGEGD
Procedure: Analysis was performed with a BLItz System (Fortébio, #C22-2 No 61010-1, Molecular Devices, San José, USA).
The affinity of the anti-hCLEC1 antibodies, was measured with Blitz system (Forté Bio, C22-2 No 61010-1).

[4] = biological target: T2, recombinant human CLEC-1 protein with …; assay: Blitz biolayer interferometry, His-CLEC1 on Ni-NTA biosensor, antibody at 20 ug/mL
[5] = biological target: T3, Fc-CLEC1 labelled with Alexa Fluor 488 (human, Alexa Fluor 488 label (sites not given)); assay: FACS competition: blocks Fc-CLEC1-A488 (10 nM) binding to CLEC-1 ligand on UV-treated PBMC; % binding
T3 construct: also called Fc-CLEC1-A488; Alexa488-Fc-Clec-1
T3 chain: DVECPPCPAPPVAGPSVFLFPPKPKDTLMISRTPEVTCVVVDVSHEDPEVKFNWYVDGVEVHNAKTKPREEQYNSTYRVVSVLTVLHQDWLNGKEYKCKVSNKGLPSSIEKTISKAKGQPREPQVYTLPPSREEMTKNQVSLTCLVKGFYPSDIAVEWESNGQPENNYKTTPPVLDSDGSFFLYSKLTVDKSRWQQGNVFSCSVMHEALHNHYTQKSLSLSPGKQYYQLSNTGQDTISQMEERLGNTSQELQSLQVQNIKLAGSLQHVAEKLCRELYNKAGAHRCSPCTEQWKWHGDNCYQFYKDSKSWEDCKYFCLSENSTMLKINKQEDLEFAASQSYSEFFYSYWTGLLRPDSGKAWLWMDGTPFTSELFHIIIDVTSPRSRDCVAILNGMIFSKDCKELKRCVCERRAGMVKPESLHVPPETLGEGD
Procedure: Competition were also measured on UV pre-treated pro-apoptotic human PBMCs, which can also express the ligand after a treatment under UV radiation for 18 hours. After UV treatment, cells were first washed in cold-PSE and then blocked during 30 min at room temperature with human Fc-block 50-fold diluted in PSE, and then replaced on ice. Purified anti-Clec antibodies at different concentrations were pre-incubated with Alexa488-Fc-Clec-1 in PSE at different concentrations for 15 min at room temperature. Pre-incubated mixes were then incubated on Fc-blocked/SAB (#34005-100, Invitrogen, Illkirch, France) pro-apoptotic PBMCs for 30 min on ice. Binding on cells were then fixed by PFA 2% in cold PBS for 10 min on ice and analyzed on CytoFlex cytofluorometer (Beckman Coulter France, Villepinte).
(§2) Methods. To measure competition on permeabilised Raji (CytoFix/cytoperm kit, BD Biosciences) which expressed CLEC1 ligand, Fc-CLEC1-labelled A488 which bound specifically to permeabilised Raji was used. To measure competition, Fc-CLEC1 labelled A488 at 10 nM or 20 nM was mixed with mouse anti-hCLEC1 at different concentrations for 15 min at RT then added on these cells for 30 min at 4° C. […] To measure competition on PMBC, we used human PBMC pre-treated by UV for 18 h to obtain apoptotic PBMC, which expressed CLEC1 ligand. Fc-CLEC1-labelled A488 bound specifically apoptotic UV-treated PBMC. To measure competition, Fc-CLEC1 labelled A488 at 10 nM was mixed with mouse anti-hCLEC1 at different concentrations for 15 min at RT then added on these cells for 30 min at 4° C.

[6] = biological target: T3, Fc-CLEC1 labelled with Alexa Fluor 488; assay: FACS competition: blocks Fc-CLEC1-A488 (10 nM) binding to CLEC-1 ligand on permeabilised Raji cells; IC50 median
Procedure: To measure competition, purified anti-Clec antibodies at different concentrations were pre-incubated in Perm Wash Buffer with Alexa488-Fc-Clec-1 for 15 min at room temperature. Pre-incubated mixes were then incubated on permeabilized and Fc-blocked Raji cells for 30 min on ice. Binding on cells were then fixed by PFA 2% in cold PBS for 10 min on ice and analyzed on CytoFlex cytofluorometer (Beckman Coulter France, Villepinte).
as §2

EC50 [1]: 0.113 µg/mL | EC50 (read off the curve) [2]: ~0.06 µg/mL | Kd [3]: ~10 nM | Kd [4]: 15.9 nM | koff [4]: 0.00124 s⁻¹ | kon [4]: 78000 M⁻¹ s⁻¹ | IC50 (read off the curve) [5]: ~0.7 µg/mL | IC50 [6]: 3.9 nM
B1: chimeric anti-CLEC-1A antibody 14H9 (antibody, human IgG4 S228P, kappa, V domains shown)
VH: QVQLKESGPGLVAPSQSLSITCTISGFSLTTYGIHWVRQPPGKGLEWLVVIWSDGSTIYNSALKSRLSISKDNSKSQVFLKMNSLQTDDTAIYYCARHGGYYNYFDYWGQGTTLTVSS
VL: DIQMNQSPSSLSASLGDTITITCHASQNINVWLSWYQQKPGNIPKLLIYKASNLHTGVPSRFSGSGSGTTFTLTIDSLQPEDIATYYCQQGQSYWTFGGGTKLEIKR
notes: also called 14H9chim; 14H9-VHwt-FcG4m / 14H9-VLwt-CLhk
